Measured values: patent US10745460B2, “Peptides and combination of peptides for use in immunotherapy against various tumors” (Immatics Biotechnologies GmbH, priority 2015, dated 2020)

Target: HLA-A*02:01 (Homo sapiens, UniProt P04439, D140Y/D185E/D98H/E176V/E277Q/G131W/G231S/I119V/I121R/I166T/I218V/L300P/L318F/N151K/N90K/P208A/P217A/Q86G/Q94H/R138H/R169H/T345S)
Assay: MHC binding assay: UV-ligand exchange with β2m ELISA (peptide exchange yield)
Conditions: binding to HLA-A*02:01 evaluated by peptide exchange yield (UV-ligand exchange, β2m ELISA)
Text: Candidate peptides for T cell based therapies according to the present invention were further tested for their MHC binding capacity (affinity). The individual peptide-MHC complexes were produced by UV-ligand exchange, where a UV-sensitive peptide is cleaved upon UV-irradiation, and exchanged with the peptide of interest as analyzed. Only peptide candidates that can effectively bind and stabilize the peptide-receptive MHC molecules prevent dissociation of the MHC complexes. To determine the yield of the exchange reaction, an ELISA was performed based on the detection of the light chain (β2m) of stabilized MHC complexes. The assay was performed as generally described in Rodenko et al. (Rodenko et al., 2006).
96 well MAXISorp plates (NUNC) were coated over night with 2 ug/ml streptavidin in PBS at room temperature, washed 4× and blocked for 1 h at 37° C. in 2% BSA containing blocking buffer. Refolded HLA-A*02:01/MLA-001 monomers served as standards, covering the range of 15-500 ng/ml. Peptide-MHC monomers of the UV-exchange reaction were diluted 100 fold in blocking buffer. Samples were incubated for 1 h at 37° C., washed four times, incubated with 2 ug/ml HRP conjugated anti-β2m for 1 h at 37° C., washed again and detected with TMB solution that is stopped with […]. Absorption was measured at 450 nm. Candidate peptides that show a high exchange yield (preferably higher than 50%, most preferred higher than 75%) are generally preferred for a generation and production of antibodies or fragments thereof, and/or T cell receptors or fragments thereof, as they show sufficient avidity to the MHC molecules and prevent dissociation of the MHC complexes.

Substance	Peptide exchange
62 (SLVENIHVL; listed as Homo sapiens) [compound 62]	+++ (≥50 = +++)
5 (GLVDIMVHL; listed as Homo sapiens) [compound 5]	+++ (≥50 = +++)
269 (GLLDCPIFL; listed as Homo sapiens) [compound 269]	++++ (≥75% = ++++)
10 (QLIEKNWLL; listed as Homo sapiens) [compound 10]	+++ (≥50 = +++)
148 (YLILSSHQL; listed as Homo sapiens) [compound 148]	+++ (≥50 = +++)
170 (FIAAVVEKV; listed as Homo sapiens) [compound 170]	++ (≥20% = ++)
28 (IKVTDPQLLEL; listed as Homo sapiens) [compound 28]	++ (≥20% = ++)
39 (YLEDGFAYV; listed as Homo sapiens) [compound 39]	+++ (≥50 = +++)
188 (VLGEEQEGV; listed as Homo sapiens) [compound 188]	++ (≥20% = ++)
105 (AMLASQTEA; listed as Homo sapiens) [compound 105]	++ (≥20% = ++)
162 (GLLGNLLTSL; listed as Homo sapiens) [compound 162]	+++ (≥50 = +++)
49 (KLIGNIHGNEV; listed as Homo sapiens) [compound 49]	++ (≥20% = ++)
140 (FLDSQITTV; listed as Homo sapiens) [compound 140]	+++ (≥50 = +++)
241 (KQFEGTVEI; listed as Homo sapiens) [compound 241]	+++ (≥50 = +++)
3 (RVIDDSLVVGV; listed as Homo sapiens) [compound 3]	+++ (≥50 = +++)
133 (FLDGRPLTL; listed as Homo sapiens) [compound 133]	++ (≥20% = ++)
155 (TLDSYLKAV; listed as Homo sapiens) [compound 155]	++ (≥20% = ++)
206 (GLDAFRIFL; listed as Homo sapiens) [compound 206]	++++ (≥75% = ++++)
278 (VLEDKVLSV; listed as Homo sapiens) [compound 278]	+++ (≥50 = +++)
275 (AVPPPPSSV; listed as Homo sapiens) [compound 275]	++ (≥20% = ++)
271 (VLIEYNFSI; listed as Homo sapiens) [compound 271]	+++ (≥50 = +++)
100 (ALQSFEFRV; listed as Homo sapiens) [compound 100]	+++ (≥50 = +++)
237 (ALLEQTGDMSL; listed as Homo sapiens) [compound 237]	+++ (≥50 = +++)
91 (LLPSIFLMV; listed as Homo sapiens) [compound 91]	++ (≥20% = ++)
81 (ILAEEPIYI; listed as Homo sapiens) [compound 81]	++ (≥20% = ++)

Substance	Peptide exchange
222 (LLTGVFAQL; listed as Homo sapiens) [compound 222]	++ (≥20% = ++)
265 (FLLDKPQDLSI; listed as Homo sapiens) [compound 265]	+++ (≥50 = +++)
92 (RLFEEVLGV; listed as Homo sapiens) [compound 92]	++++ (≥75% = ++++)
111 (AQLEGKLVSI; listed as Homo sapiens) [compound 111]	+++ (≥50 = +++)
113 (FLFLKEVKV; listed as Homo sapiens) [compound 113]	++ (≥20% = ++)
279 (VLMDEGAVLTL; listed as Homo sapiens) [compound 279]	++ (≥20% = ++)
268 (SLDKDIVAL; listed as Homo sapiens) [compound 268]	++ (≥20% = ++)
53 (AQHLSTLLL; listed as Homo sapiens) [compound 53]	+ (≥10% = +)
90 (AILNVDEKNQV; listed as Homo sapiens) [compound 90]	++ (≥20% = ++)
71 (HMSGKLTNV; listed as Homo sapiens) [compound 71]	++ (≥20% = ++)
177 (ALINVLNAL; listed as Homo sapiens) [compound 177]	+++ (≥50 = +++)
179 (TLGEIIKGV; listed as Homo sapiens) [compound 179]	+++ (≥50 = +++)
218 (SLTGANITV; listed as Homo sapiens) [compound 218]	+++ (≥50 = +++)
168 (VIFEGEPMYL; listed as Homo sapiens) [compound 168]	+++ (≥50 = +++)
151 (DISKRIQSL; listed as Homo sapiens) [compound 151]	++ (≥20% = ++)
169 (ALADLSVAV; listed as Homo sapiens) [compound 169]	+++ (≥50 = +++)
112 (ILAQDVAQL; listed as Homo sapiens) [compound 112]	+++ (≥50 = +++)
191 (AAIEIFEKV; listed as Homo sapiens) [compound 191]	+++ (≥50 = +++)
184 (ALDSTIAHL; listed as Homo sapiens) [compound 184]	++ (≥20% = ++)
229 (YLYELEHAL; listed as Homo sapiens) [compound 229]	++ (≥20% = ++)
157 (ILQDGQFLV; listed as Homo sapiens) [compound 157]	++ (≥20% = ++)
262 (LLLEAVWHL; listed as Homo sapiens) [compound 262]	+++ (≥50 = +++)
7 (ALLQALMEL; listed as Homo sapiens) [compound 7]	+++ (≥50 = +++)
163 (GLEERLYTA; listed as Homo sapiens) [compound 163]	++ (≥20% = ++)
216 (ALSTVTPRI; listed as Homo sapiens) [compound 216]	++ (≥20% = ++)

Substance	Peptide exchange
19 (KVFELDLVTL; listed as Homo sapiens) [compound 19]	++ (≥20% = ++)
25 (LLWGHPRVALA; listed as Homo sapiens) [compound 25]	+++ (≥50 = +++)
280 (HLWGHALFL; listed as Homo sapiens) [compound 280]	+++ (≥50 = +++)
22 (LMYPYIYHV; listed as Homo sapiens) [compound 22]	+++ (≥50 = +++)
212 (MTLSEIHAV; listed as Homo sapiens) [compound 212]	++ (≥20% = ++)
47 (GLNGFNVLL; listed as Homo sapiens) [compound 47]	+++ (≥50 = +++)
139 (IILENIQSL; listed as Homo sapiens) [compound 139]	+++ (≥50 = +++)
192 (TLLPSSGLVTL; listed as Homo sapiens) [compound 192]	++ (≥20% = ++)
159 (QLGPVPVTI; listed as Homo sapiens) [compound 159]	+++ (≥50 = +++)
82 (ILAEEPIYIRV; listed as Homo sapiens) [compound 82]	+++ (≥50 = +++)
230 (KLLNMIFSI; listed as Homo sapiens) [compound 230]	+++ (≥50 = +++)
146 (VVAAHLAGA; listed as Homo sapiens) [compound 146]	++ (≥20% = ++)
93 (RLYGYFHDA; listed as Homo sapiens) [compound 93]	++ (≥20% = ++)
215 (QIADIVTSV; listed as Homo sapiens) [compound 215]	++ (≥20% = ++)
167 (LVVDEGSLVSV; listed as Homo sapiens) [compound 167]	+++ (≥50 = +++)
126 (QLREAFEQL; listed as Homo sapiens) [compound 126]	+++ (≥50 = +++)
128 (SILTNISEV; listed as Homo sapiens) [compound 128]	++ (≥20% = ++)
239 (VIIKGLEEITV; listed as Homo sapiens) [compound 239]	+++ (≥50 = +++)
12 (RLLDPKTIFL; listed as Homo sapiens) [compound 12]	+++ (≥50 = +++)
67 (FLIENLLAA; listed as Homo sapiens) [compound 67]	+++ (≥50 = +++)
23 (ALLSPLSLA; listed as Homo sapiens) [compound 23]	+++ (≥50 = +++)
245 (ALLEEEEGV; listed as Homo sapiens) [compound 245]	++ (≥20% = ++)
238 (HLQEKLQSL; listed as Homo sapiens) [compound 238]	++ (≥20% = ++)
